Experimental findings from patent US5756291, “Aptamers specific for biomolecules and methods of making” (Gilead Sciences, Inc.) are described below.

Series [1] has as its target T1, thrombin (alpha, Factor IIa) (Homo sapiens, UniProt P00734;P00734 P00734:328-363,P00734:364-622). The experiment in a line: inhibition; 100 nM; no DNA 23 s.
Series [2] addresses T1, thrombin (alpha, Factor IIa). The experiment in a line: inhibition.
Series [3] shares this target. The experiment in a line: filter.
Another series addresses trypsin (UniProt P00760 P00760:24-246). The experiment in a line: EMSA; 500 nM protein, 4 C.
Another series deals with chymotrypsin (UniProt P00766;P00766;P00766 P00766:1-13,P00766:16-146,P00766:149-245). The experiment in a line: EMSA; 500 nM protein, 4 C.
The next series deals with serum albumin (Homo sapiens, UniProt P02768 P02768:25-609). The experiment in a line: EMSA; 500 nM protein, 4 C.
Sequence of serum albumin (P02768 25-609, one chain of several): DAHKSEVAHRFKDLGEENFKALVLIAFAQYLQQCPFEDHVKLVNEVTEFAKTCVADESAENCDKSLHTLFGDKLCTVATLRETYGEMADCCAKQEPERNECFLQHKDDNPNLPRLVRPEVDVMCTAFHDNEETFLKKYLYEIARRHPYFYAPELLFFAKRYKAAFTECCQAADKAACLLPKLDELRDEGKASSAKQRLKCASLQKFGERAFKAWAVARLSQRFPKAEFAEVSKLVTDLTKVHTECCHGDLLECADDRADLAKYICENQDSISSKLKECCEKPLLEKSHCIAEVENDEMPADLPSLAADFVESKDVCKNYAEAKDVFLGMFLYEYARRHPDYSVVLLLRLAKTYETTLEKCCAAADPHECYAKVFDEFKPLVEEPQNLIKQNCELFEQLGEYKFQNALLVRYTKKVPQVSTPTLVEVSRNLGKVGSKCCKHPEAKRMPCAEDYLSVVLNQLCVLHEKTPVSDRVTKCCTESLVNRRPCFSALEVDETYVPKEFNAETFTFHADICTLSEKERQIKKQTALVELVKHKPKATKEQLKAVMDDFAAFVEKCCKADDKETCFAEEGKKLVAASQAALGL
The next series addresses Factor X (UniProt P00742;P00742 P00742:41-179,P00742:183-488). The experiment in a line: EMSA; 500 nM protein, 4 C. The conditions noted are these: tags: Haematologic Technologies HCXA-0060.
For another series, the target named is prothrombin (Homo sapiens, UniProt P00734 P00734:44-622). The experiment in a line: EMSA; 500 nM protein, 4 C.

Sequence of Factor X (P00742 41-179, chain 1 of 2): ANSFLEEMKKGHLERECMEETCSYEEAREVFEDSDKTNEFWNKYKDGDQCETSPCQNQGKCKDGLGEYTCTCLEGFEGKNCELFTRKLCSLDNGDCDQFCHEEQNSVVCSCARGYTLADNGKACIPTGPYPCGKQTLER
Sequence of Factor X (P00742 183-488, chain 2 of 2): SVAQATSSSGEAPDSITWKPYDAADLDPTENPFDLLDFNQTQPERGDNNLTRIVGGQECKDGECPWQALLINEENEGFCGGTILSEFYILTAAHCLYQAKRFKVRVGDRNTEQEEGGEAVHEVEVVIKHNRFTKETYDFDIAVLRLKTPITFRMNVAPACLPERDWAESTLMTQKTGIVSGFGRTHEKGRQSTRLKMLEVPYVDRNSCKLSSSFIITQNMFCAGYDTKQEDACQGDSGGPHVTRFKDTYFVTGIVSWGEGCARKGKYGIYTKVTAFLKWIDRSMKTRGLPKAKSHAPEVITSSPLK
Sequence of trypsin (P00760 24-246, one chain of several): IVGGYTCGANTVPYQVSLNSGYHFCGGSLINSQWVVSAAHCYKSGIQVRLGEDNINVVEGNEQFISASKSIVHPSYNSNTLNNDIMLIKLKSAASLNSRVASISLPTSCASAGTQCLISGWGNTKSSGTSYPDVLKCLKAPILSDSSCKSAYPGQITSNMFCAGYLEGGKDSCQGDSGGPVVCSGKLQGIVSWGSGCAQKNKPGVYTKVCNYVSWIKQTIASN

Take GGTTGGTGTGGTTGG (ssDNA, Z 5-(1-propynyl)-2'-deoxyuridine [4 (Z = 5-(1-propynyl)-2'-deoxyuridine)]) [15-mer propynyl-dU 4]: the activity in series [1] came out at 187 s clot time.

In turn, GGUTGGTGTGGUTGG (ssDNA, dU at 3 and 12) [15-mer dU3 dU12] returned a Ki in series [2] of 0.08 µM.

In turn, GGTTGGUGUGGTTGG (ssDNA, dU at 7 and 9) [15-mer dU7 dU9] registered a Ki in series [2] of 0.015 µM.

With GGTTGGTGTGGTUGG (ssDNA, U13 is 5-(1-pentynyl)-2'-deoxyuridine) [15-mer pentynyl-U13], affinity in series [2] was put at a Ki of 0.02 µM.

B1: pentynyl-dU clone 24 60-mer (ssDNA)
DNA: TAGAATACTCAAGCTTCGACGGTATATAGTATAGTATTGGCAGTTTGGATCCCCGGGTAC
modifications: X 5-pentynyl-dU; T in 3' constant region also 5-pentynyl-dU; T in 5' constant region unmodified [23,25,27,30,32,35,37,38 (X = 5-pentynyl-dU); 44,45,46,50,58 (3' constant region T = 5-pentynyl-dU)]
For the molecule B1, binding in series [3] was characterised by a dissociation constant (Kd) of 0.4 µM. Moreover, the binding result with trypsin, with chymotrypsin, in the series with serum albumin, with Factor X and with prothrombin was “no binding” in each case.

For the molecule GGTTGGTGTGGTTGG (ssDNA, Z 5-(1-propynyl)-2'-deoxyuridine [7 (Z = 5-(1-propynyl)-2'-deoxyuridine)]) [15-mer propynyl-dU 7], in series [1], the activity worked out at 118 s clot time.

Molecule GGTTGGGCTGGTTGGGTTGGG (ssDNA) [21-mer thrombin aptamer] displayed a Kd in series [3] of approximately 0.35 µM. In series [2], the Ki was approximately 0.1 µM.

For the molecule GGTTGGTGTGGTTGG (ssDNA, Z 5-(1-propynyl)-2'-deoxyuridine [9 (Z = 5-(1-propynyl)-2'-deoxyuridine)]) [15-mer propynyl-dU 9], the activity in series [1] was determined as 120 s clot time.

Consider GGTTGGTGTGGTTGG (ssDNA, Z 5-(1-propynyl)-2'-deoxyuridine [3 (Z = 5-(1-propynyl)-2'-deoxyuridine)]) [15-mer propynyl-dU 3], for which the activity in series [1] was 138 s clot time.

For GGTTGGTGTGGTTGG (ssDNA, Z 5-(1-propynyl)-2'-deoxyuridine [12 (Z = 5-(1-propynyl)-2'-deoxyuridine)]) [15-mer propynyl-dU 12], in series [1], the activity worked out at 129 s clot time.
